B1: Alpha-lactalbumin, P00712 (parent)
chain: MMSFVSLLLVGILFHATQAEQLTKCEVFQKLKDLKDYGGVSLPEWVCTAFHTSGYDTQAIVQNNDSTEYGLFQINNKIWCKDDQNPHSRNICNISCDKFLDDDLTDDIVCAKKILDKVGINYWLAHKALCSEKLDQWLCEKL

Variants of: B1
Details: Capra hircus; pH 2; 20 °C; Urea; CD; NaCl-HCl 100 mM; structure 1HFY; whole UniProt chain shown

Variant: MMSFVSLLLVGILFHATQAEQLTKCEVFQKLKDLKDYGGVSLPEWVCIAFHTSGYDTQAIVQNNDSTEYGLFQINNKIWCKDDQNPHSRNICNISCDKFLDDDLTDDIVCAKKILDKVGINYWLAHKALCSEKLDQWLCEKL [T48I]
- ddG of mutation (higher = less stable): -0.07 kcal/mol
- denaturant m value: 0.31 kcal/mol/M
- denaturant midpoint (higher = more stable): 2.5 M
- unfolding free energy: 0.77 kcal/mol

Variant: MMSFVSLLLVGILFHATQAEQLTKCEVFQKLKDLKDYGGVSLPEWVCTIFHTSGYDTQAIVQNNDSTEYGLFQINNKIWCKDDQNPHSRNICNISCDKFLDDDLTDDIVCAKKILDKVGINYWLAHKALCSEKLDQWLCEKL [A49I]
- ddG of mutation (higher = less stable): -0.3 kcal/mol
- denaturant m value: 0.33 kcal/mol/M
- denaturant midpoint (higher = more stable): 3 M
- unfolding free energy: 1 kcal/mol

Variant: MMSFVSLLLVGILFHATQAEQLTKCEVFQKLKDLKDYGGVSLPEWVCTTFHTSGYDTQAIVQNNDSTEYGLFQINNKIWCKDDQNPHSRNICNISCDKFLDDDLTDDIVCAKKILDKVGINYWLAHKALCSEKLDQWLCEKL [A49T]
- ddG of mutation (higher = less stable): 0.14 kcal/mol
- denaturant m value: 0.29 kcal/mol/M
- denaturant midpoint (higher = more stable): 1.9 M
- unfolding free energy: 0.56 kcal/mol

Variant: MMSFVSLLLVGILFHATQAEQLTKCEVFQKLKDLKDYGGVSLPEWVCTAFHISGYDTQAIVQNNDSTEYGLFQINNKIWCKDDQNPHSRNICNISCDKFLDDDLTDDIVCAKKILDKVGINYWLAHKALCSEKLDQWLCEKL [T52I]
- ddG of mutation (higher = less stable): -0.32 kcal/mol
- denaturant m value: 0.39 kcal/mol/M
- denaturant midpoint (higher = more stable): 2.6 M
- unfolding free energy: 1.02 kcal/mol

Source: FireProtDB (doi:10.1093/protein/8.11.1153)
